This is an account of results in paper PMC4370339 (Journal of molecular biology, 2014).

First the molecules themselves.
B5: SecB wild-type parent carrying Q12C (A) (natural protein, Escherichia coli, UniProt P0AG86 1-155, looked up)
chain: MSEQNNTEMTFCIQRIYTKDISFEAPNAPHVFQKDWQPEVKLDLDTASSQLADDVYEVVLRVTVTASLGEETAFLCEVQQGGIFSIAGIEGTQMAHCLGAYLPNILFPYARECITSMVSRGTFPQLNLAPVNFDALFMNYLQQQAGEGTEEHQDA
B6: SecB142 parent carrying A129C (c) (domain or fragment, Escherichia coli, UniProt P0AG86 1-142, looked up)
chain: MSEQNNTEMTFQIQRIYTKDISFEAPNAPHVFQKDWQPEVKLDLDTASSQLADDVYEVVLRVTVTASLGEETAFLCEVQQGGIFSIAGIEGTQMAHCLGAYLPNILFPYARECITSMVSRGTFPQLNLCPVNFDALFMNYLQ
B7: SecB142,E77K parent carrying A129C (d) (domain or fragment, Escherichia coli, UniProt P0AG86 1-142, looked up)
chain: MSEQNNTEMTFQIQRIYTKDISFEAPNAPHVFQKDWQPEVKLDLDTASSQLADDVYEVVLRVTVTASLGEETAFLCKVQQGGIFSIAGIEGTQMAHCLGAYLPNILFPYARECITSMVSRGTFPQLNLCPVNFDALFMNYLQ

In one data set the target is SecB (Escherichia coli) (UniProt P0AG86). Put plainly: ITC. The conditions noted are these: cited from earlier work.
In data set [1] the target is T1, SecBA129C (A, otherwise wild-type) (Escherichia coli, UniProt P0AG86 1-155, A129C | C102L).
T1 sequence (looked up): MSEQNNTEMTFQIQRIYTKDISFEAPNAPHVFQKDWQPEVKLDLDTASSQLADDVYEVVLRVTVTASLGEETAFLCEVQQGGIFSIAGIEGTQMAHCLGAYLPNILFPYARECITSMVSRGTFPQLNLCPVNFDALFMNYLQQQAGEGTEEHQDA
Put plainly: cross-linking.

In data set [2] the target is B7. Briefly: cross-linking.
In data set [3] the target is T2, SecBE77K parent carrying A129C (b) (Escherichia coli, UniProt P0AG86 1-155, E77K | A129C | C102L).
T2 sequence (looked up): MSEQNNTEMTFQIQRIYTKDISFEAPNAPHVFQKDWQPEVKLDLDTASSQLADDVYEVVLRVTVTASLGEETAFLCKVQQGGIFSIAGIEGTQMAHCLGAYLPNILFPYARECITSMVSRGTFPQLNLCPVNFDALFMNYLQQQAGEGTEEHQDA
Briefly: cross-linking.

The target of data set [4] is B6. Briefly: cross-linking.
The target of data set [5] is T3, SecA (Escherichia coli, UniProt P10408 1-901). Briefly: SEC-MALS. (In general: In gel filtration, larger molecules generally elute earlier.)
T3 sequence (P10408 whole entry): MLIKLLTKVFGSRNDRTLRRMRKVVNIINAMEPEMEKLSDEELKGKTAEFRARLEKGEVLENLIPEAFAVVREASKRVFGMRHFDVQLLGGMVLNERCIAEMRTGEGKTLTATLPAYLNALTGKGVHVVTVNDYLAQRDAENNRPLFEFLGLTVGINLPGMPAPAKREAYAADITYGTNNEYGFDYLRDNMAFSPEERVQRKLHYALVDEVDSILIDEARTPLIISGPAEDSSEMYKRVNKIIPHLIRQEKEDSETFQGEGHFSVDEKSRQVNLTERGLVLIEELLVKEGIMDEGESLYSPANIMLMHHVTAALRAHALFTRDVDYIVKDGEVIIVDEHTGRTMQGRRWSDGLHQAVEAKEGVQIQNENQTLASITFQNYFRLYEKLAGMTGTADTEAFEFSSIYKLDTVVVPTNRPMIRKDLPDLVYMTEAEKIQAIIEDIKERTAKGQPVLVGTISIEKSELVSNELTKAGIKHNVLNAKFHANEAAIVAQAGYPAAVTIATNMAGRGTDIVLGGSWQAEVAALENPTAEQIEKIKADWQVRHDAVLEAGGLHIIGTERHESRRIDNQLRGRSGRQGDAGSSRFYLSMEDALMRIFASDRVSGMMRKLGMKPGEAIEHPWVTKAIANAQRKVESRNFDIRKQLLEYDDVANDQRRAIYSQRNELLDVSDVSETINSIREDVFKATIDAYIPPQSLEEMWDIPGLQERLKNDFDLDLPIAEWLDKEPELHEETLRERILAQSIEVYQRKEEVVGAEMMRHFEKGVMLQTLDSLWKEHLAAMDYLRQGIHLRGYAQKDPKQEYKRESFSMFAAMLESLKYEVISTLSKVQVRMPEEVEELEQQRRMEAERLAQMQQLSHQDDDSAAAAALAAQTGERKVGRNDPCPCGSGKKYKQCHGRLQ
Data set [6] deals with T3, SecA. Briefly: SEC.
The data set “AUC” deals with the molecule itself. Put plainly: AUC.
The target in the next data set is T4, SecBQ12C E77K (B) (Escherichia coli, UniProt P0AG86 1-155, Q12C | E77K | C102L).
T4 sequence (looked up): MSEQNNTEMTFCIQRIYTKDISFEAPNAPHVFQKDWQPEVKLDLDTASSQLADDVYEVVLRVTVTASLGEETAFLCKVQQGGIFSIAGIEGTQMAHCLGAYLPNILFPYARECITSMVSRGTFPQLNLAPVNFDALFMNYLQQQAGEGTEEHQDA
Put plainly: cross-linking.

Data set [7] has as its target B5. Put plainly: cross-linking.

The Kd is the constant that tells how readily two partners part at equilibrium. For the molecule SecA 2-11 (from UniProt P10408), the Kd with SecB (Escherichia coli) is 30 µM.

B1: SecB142 parent carrying Q12C (C) (domain or fragment, Escherichia coli, UniProt P0AG86 1-142, looked up)
chain: MSEQNNTEMTFCIQRIYTKDISFEAPNAPHVFQKDWQPEVKLDLDTASSQLADDVYEVVLRVTVTASLGEETAFLCEVQQGGIFSIAGIEGTQMAHCLGAYLPNILFPYARECITSMVSRGTFPQLNLAPVNFDALFMNYLQ
As for B1, the binding result in data set [1], in [2] and in [3] was “binds” throughout.

B2: SecB142,E77K parent carrying Q12C (D) (domain or fragment, Escherichia coli, UniProt P0AG86 1-142, looked up)
chain: MSEQNNTEMTFCIQRIYTKDISFEAPNAPHVFQKDWQPEVKLDLDTASSQLADDVYEVVLRVTVTASLGEETAFLCKVQQGGIFSIAGIEGTQMAHCLGAYLPNILFPYARECITSMVSRGTFPQLNLAPVNFDALFMNYLQ
With B2, the binding result in data set [4], in data set [1] and in data set [3] was “binds” throughout.

B3: SecBL75Q (natural protein, Escherichia coli)
chain: MSEQNNTEMTFQIQRIYTKDISFEAPNAPHVFQKDWQPEVKLDLDTASSQLADDVYEVVLRVTVTASLGEETAFQCEVQQGGIFSIAGIEGTQMAHCLGAYCPNILFPYARECITSMVSRGTFPQLNLAPVNFDALFMNYLQQQAGEGTEEHQ
B3: the “stoichiometry N” value with SecA [5] was 1 SecA protomers per SecB tetramer.

B4: SecB wild-type (natural protein, Escherichia coli, UniProt P0AG86 1-155, looked up)
chain: MSEQNNTEMTFQIQRIYTKDISFEAPNAPHVFQKDWQPEVKLDLDTASSQLADDVYEVVLRVTVTASLGEETAFLCEVQQGGIFSIAGIEGTQMAHCLGAYCPNILFPYARECITSMVSRGTFPQLNLAPVNFDALFMNYLQQQAGEGTEEHQDA
Regarding B4, the “relative affinity (ratio of Kds) against radiolabeled SecB” value with SecA [6] came out at 0.82 unitless. The binding result in “AUC” is recorded as “binds”. For the molecule B5, the binding result in data set [1] is listed as “binds”. In the case of B6, the binding result in the data set with SecBQ12C E77K (B) was “binds”.

As to B7, the binding result in [7] is listed as “binds”.
